Test results taken from patent US20050222029A1 (MYRIAD GENETICS, published 2005).

B1: Keratin 5 349-475 (other, human, UniProt P13647 349-475, looked up)
chain: IANRSRTEAESWYQTKYEELQQTAGRHGDDLRNTKHEISEMNRMIQRLRAEIDNVKKQCANLQNAIADAEQRGELALKDARNKLAELEEALQKAKQDMARLLREYQELMNTKLALDVEIATYRKLLE
notes: prey (Gal4 AD-HA fusion)
B2: Intersection 1 436-547 (other, human, UniProt Q15811 436-547, looked up)
chain: AAKRELERQRQLEWERNRRQELLNQRNKEQEDIVVLKAKKKTLEFELEALNDKKHQLEGKLQDIRCRLTTQRQEIESTNKSRELRIAEITHLQQQLQESQQMLGRLIPEKQI
notes: prey (Gal4 AD-HA fusion); also called Intersectin 1; ITSN1
B3: Mitotic spindle coiled-coil related protein 942-1021 (other, human, UniProt Q96R06 942-1021, looked up)
chain: LGSDKSAFTRVASMVSLQPAETPGMEESLAEMSIMTTELQSLCSLLQESKEEAIRTLQRKICELQARLQAQEEQHQEVQK
notes: prey (Gal4 AD-HA fusion)
B4: Keratin 5 347-485 (other, human, UniProt P13647 347-485, looked up)
chain: EEIANRSRTEAESWYQTKYEELQQTAGRHGDDLRNTKHEISEMNRMIQRLRAEIDNVKKQCANLQNAIADAEQRGELALKDARNKLAELEEALQKAKQDMARLLREYQELMNTKLALDVEIATYRKLLEGEECRLSGEG
notes: prey (Gal4 AD-HA fusion)
B5: Keratin 5 379-452 (other, human, UniProt P13647 379-452, looked up)
chain: LRNTKHEISEMNRMIQRLRAEIDNVKKQCANLQNAIADAEQRGELALKDARNKLAELEEALQKAKQDMARLLRE
notes: prey (Gal4 AD-HA fusion)
B6: Intersection 1 437-584 (other, human, UniProt Q15811 437-584, looked up)
chain: AKRELERQRQLEWERNRRQELLNQRNKEQEDIVVLKAKKKTLEFELEALNDKKHQLEGKLQDIRCRLTTQRQEIESTNKSRELRIAEITHLQQQLQESQQMLGRLIPEKQILNDQLKQVQQNSLHRDSLVTLKRALEAKELARQHLRD
notes: as for B2
B7: GTPase-activiating protein 1 1404-1553 (other, human, UniProt P46940 1404-1553, looked up)
chain: LTEILETPATSEQEAEHQRAMQRRAIRDAKTPDKMKKSKSVKEDSNLTLQEKKEKIQTGLKKLTELGTVDPKNKYQELINDIARDIRNQRRYRQRRKAELVKLQQTYAALNSKATFYGEQVDYYKSYIKTCLDNLASKGKVSKKPREMKG
notes: prey (Gal4 AD-HA fusion); also called IQGAP1; IQGAP
B8: GTPase-activiating protein 1 1439-1567 (other, human, UniProt P46940 1439-1567, looked up)
chain: KKSKSVKEDSNLTLQEKKEKIQTGLKKLTELGTVDPKNKYQELINDIARDIRNQRRYRQRRKAELVKLQQTYAALNSKATFYGEQVDYYKSYIKTCLDNLASKGKVSKKPREMKGKKSKKISLKYTAAR
notes: as for B7
B9: Keratin 5 384-475 (other, human, UniProt P13647 384-475, looked up)
chain: HEISEMNRMIQRLRAEIDNVKKQCANLQNAIADAEQRGELALKDARNKLAELEEALQKAKQDMARLLREYQELMNTKLALDVEIATYRKLLE
notes: prey (Gal4 AD-HA fusion)
B10: Keratin 5 325-446 (other, human, UniProt P13647 325-446, looked up)
chain: LSMDNNRNLDLDSIIAEVKAQYEEIANRSRTEAESWYQTKYEELQQTAGRHGDDLRNTKHEISEMNRMIQRLRAEIDNVKKQCANLQNAIADAEQRGELALKDARNKLAELEEALQKAKQDM
notes: prey (Gal4 AD-HA fusion)
B11: Keratin 5 335-473 (other, human, UniProt P13647 335-473, looked up)
chain: LDSIIAEVKAQYEEIANRSRTEAESWYQTKYEELQQTAGRHGDDLRNTKHEISEMNRMIQRLRAEIDNVKKQCANLQNAIADAEQRGELALKDARNKLAELEEALQKAKQDMARLLREYQELMNTKLALDVEIATYRKL
notes: prey (Gal4 AD-HA fusion)
B12: GTPase-activiating protein 1 1406-1547 (other, human, UniProt P46940 1406-1547, looked up)
chain: EILETPATSEQEAEHQRAMQRRAIRDAKTPDKMKKSKSVKEDSNLTLQEKKEKIQTGLKKLTELGTVDPKNKYQELINDIARDIRNQRRYRQRRKAELVKLQQTYAALNSKATFYGEQVDYYKSYIKTCLDNLASKGKVSKK
notes: as for B7
B13: Keratin 8 293-394 (other, human, UniProt P05787 293-394, looked up)
chain: AGKHGDDLRRTKTEISEMNRNISRLQAEIEGLKGQRASLEAAIADAEQRGELAIKDANAKLSELEAALQRAKQDMARQLREYQELMNVKLALDIEIATYRKL
notes: prey (Gal4 AD-HA fusion)
B14: GTPase-activiating protein 1 1463-1568 (other, human, UniProt P46940 1463-1568, looked up)
chain: LKKLTELGTVDPKNKYQELINDIARDIRNQRRYRQRRKAELVKLQQTYAALNSKATFYGEQVDYYKSYIKTCLDNLASKGKVSKKPREMKGKKSKKISLKYTAARL
notes: as for B7
B15: GTPase-activiating protein 1 1439-1565 (other, human, UniProt P46940 1439-1565, looked up)
chain: KKSKSVKEDSNLTLQEKKEKIQTGLKKLTELGTVDPKNKYQELINDIARDIRNQRRYRQRRKAELVKLQQTYAALNSKATFYGEQVDYYKSYIKTCLDNLASKGKVSKKPREMKGKKSKKISLKYTA
notes: as for B7
B16: Tropomyosin TM30pl (TPM4) 79-142 (other, human, UniProt P67936 79-142, looked up)
chain: EAEKAADESERGMKVIENRAMKDEEKMEIQEMQLKEAKHIAEEADRKYEEVARKLVILEGELER
notes: prey (Gal4 AD-HA fusion)
B17: GrpE-Like protein cochaperone (PN19062) 40-89 (other)
chain: LEEDMGQSEQKADPPATEKTLLEEKVKLEEQLKETVEKYKRALADTENLR
notes: prey (Gal4 AD-HA fusion); also called PN19062/HMGE; GRPEL1
B18: Rho-associated (ROCK1) 462-617 (enzyme, human, UniProt Q13464 462-617, looked up)
chain: KIMKELDEEGNQRRNLESTVSQIEKEKMLLQHRINEYQRKAEQENEKRRNVENEVSTLKDQLEDLKKVSQNSQLANEKLSQLQKQLEEANDLLRTESDTAVRLRKSHTEMSKSISQLESLNRELQERNRILENSKSQTDKDYYQLQAILEAERRDR
notes: prey (Gal4 AD-HA fusion); also called ROK; p160
B19: Chromosome-associated polypeptide HCAP (HCAP) 208-300 (other, human, UniProt Q9UQE7 208-300, looked up)
chain: EELAQYQKWDKMRRALEYTIYNQELNETRAKLDELSAKRETSGEKSRQLRDAQQDARDKMEDIERQVRELKTKISAMKEEKEQLSAERQEQIK
notes: prey (Gal4 AD-HA fusion)
B20: Tropomyosin TM30pl (TPM4) 91-142 (other, human, UniProt P67936 91-142, looked up)
chain: MKVIENRAMKDEEKMEIQEMQLKEAKHIAEEADRKYEEVARKLVILEGELER
notes: prey (Gal4 AD-HA fusion)
B21: Zink finger protein 231 (ZNF231) 2308-2438 (other, human, UniProt Q9UPA5 2308-2438, looked up)
chain: EEPLPTTTPAAIKEAAGAPAPAPLAGQKPPADAAPGGGSGALSRPGFEKEEASQEERQRKQQEQLLQLERERVELEKLRQLRLQEELERERVELQRHREEEQLLVQRELQELQTIKHHVLQQQQEERQAQF
notes: prey (Gal4 AD-HA fusion)
B22: Golgi autoantigen (Golgin-84) 198-501 (other, human, UniProt Q8TBA6 198-501, looked up)
chain: SKENVSSNAACPDHTPTPNDDGKSHELSNLRLENQLLRNEVQSLNQEMASLLQRSKETQEELNKARARVEKWNADHSKSDRMTRGLRAQVDDLTEAVAAKDSQLAVLKVRLQEADQLLSTRTEALEALQSEKSRIMQDQSEGNSLQNQALQTFQERLHEADATLKREQESYKQMQSEFAARLNKVEMERQNLAEAITLAERKYSDEKKRVDELQQQVKLYKLNLESSKQELIDYKQKATRILQSKEKLINSLKEGSGFEGLDSSTASSMELEELRHEKEMQREEIQKLMGQIHQLRSELQDMEA
notes: prey (Gal4 AD-HA fusion)
B23: Kinesin Family Member 5A (KIF5A) 564-725 (other, human, UniProt Q12840 564-725, looked up)
chain: IVGNGEIKLPVEISGAIEEEFTVARLYISKIKSEVKSVVKRCRQLENLQVECHRKMEVTGRELSSCQLLISQHEAKIRSLTEYMQSVELKKRHLEESYDSLSDELAKLQAQETVHEVALKDKEPDTQDADEVKKALELQMESHREAHHRQLARLRDEINEKQ
notes: prey (Gal4 AD-HA fusion)
B24: Golgi autoantigen (Golgin-84) 198-497 (other, human, UniProt Q8TBA6 198-497, looked up)
chain: SKENVSSNAACPDHTPTPNDDGKSHELSNLRLENQLLRNEVQSLNQEMASLLQRSKETQEELNKARARVEKWNADHSKSDRMTRGLRAQVDDLTEAVAAKDSQLAVLKVRLQEADQLLSTRTEALEALQSEKSRIMQDQSEGNSLQNQALQTFQERLHEADATLKREQESYKQMQSEFAARLNKVEMERQNLAEAITLAERKYSDEKKRVDELQQQVKLYKLNLESSKQELIDYKQKATRILQSKEKLINSLKEGSGFEGLDSSTASSMELEELRHEKEMQREEIQKLMGQIHQLRSELQ
notes: prey (Gal4 AD-HA fusion)
B25: novel protein PN9667 268-422 (other)
chain: KAKEKEVEKIEQNGLALIQNKKEDVSSIVMSTLRELGQTWANLDHMVGQLKILLKSVLDQWSSHKVAFDKINSYLMEARYSLSRFRLLTGSLEAVQVQVDNLQNLQDDLEKQERSLQKFGSITNQLLKECHPPVTETLTNTLKEVNMRWNNLLEE
notes: prey (Gal4 AD-HA fusion)
B26: Accessory proteins BAP31/BAP29 (BAP31) 184-246 (other, human, UniProt P51572 184-246, looked up)
chain: LKADLQKLKDELASTKQKLEKAENQVLAMRKQSEGLTKEYDRLLEEHAKLQAAVDGPMDKKEE
notes: prey (Gal4 AD-HA fusion)

What follows are binders tested against T1, Tumor Suppressor (TSG101) 240-391 (human, UniProt Q99816 240-390) (assay: yeast two-hybrid).
T1 construct: range 240-391; bait (Gal4 DBD fusion); also called TSG101 240-390
T1 sequence (looked up): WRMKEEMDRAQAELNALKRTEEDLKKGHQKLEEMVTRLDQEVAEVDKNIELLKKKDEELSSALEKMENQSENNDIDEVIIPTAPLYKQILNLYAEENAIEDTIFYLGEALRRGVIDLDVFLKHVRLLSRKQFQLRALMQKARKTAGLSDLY

Binding result, binds:
B1, B2, B3, B4, B5, B6, B7, B8, B9, B10, B11, B12, B13, B14, B15

What follows are binders tested against T2, Tumor Suppressor (TSG101) 231-391 (human, UniProt Q99816 231-390) (assay: yeast two-hybrid).
T2 construct: bait (Gal4 DBD fusion)
T2 sequence (looked up): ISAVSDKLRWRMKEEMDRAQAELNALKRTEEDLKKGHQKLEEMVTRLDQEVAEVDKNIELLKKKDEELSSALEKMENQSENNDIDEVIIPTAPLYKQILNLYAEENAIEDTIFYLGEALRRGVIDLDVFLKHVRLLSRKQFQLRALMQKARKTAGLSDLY

Binding result, binds:
B16, B17, B18, B19, B20, B21

Each binder was assayed against T3, Tumor Suppressor (TSG101) 12-326 (human, UniProt Q99816 12-326) (assay: yeast two-hybrid).
T3 construct: bait (Gal4 DBD fusion)
T3 sequence (looked up): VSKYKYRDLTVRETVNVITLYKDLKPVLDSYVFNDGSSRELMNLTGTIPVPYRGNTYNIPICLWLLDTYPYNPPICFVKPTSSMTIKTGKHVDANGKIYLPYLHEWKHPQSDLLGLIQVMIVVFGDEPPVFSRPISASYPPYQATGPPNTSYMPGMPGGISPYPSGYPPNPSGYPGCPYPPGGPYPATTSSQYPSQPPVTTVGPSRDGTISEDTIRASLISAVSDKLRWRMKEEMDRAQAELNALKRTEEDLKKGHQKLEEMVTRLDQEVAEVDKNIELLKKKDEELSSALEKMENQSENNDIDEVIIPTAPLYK

Binding result, binds:
B22, B23, B24, B25, B26
